Results: patent publication US20120014911

T1: GST-IFNAR1 (wild type): bacterially expressed cytoplasmic domain of IFNAR1 fused with GST, P17181
T1 chain: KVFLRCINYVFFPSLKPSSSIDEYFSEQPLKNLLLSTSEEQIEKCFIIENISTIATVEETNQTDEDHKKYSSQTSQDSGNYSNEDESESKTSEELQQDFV


Target: T1, GST-IFNAR1 (wild type): bacterially …

Row | Protein | in vitro phosphorylation of GST-IFNAR1 on Ser535 (immunoblot with anti-pS535) | immunokinase assay: phosphorylation of GST-IFNAR1 on Ser535
1 | GST-tagged PKD2 (human, wild type) expressed in 293T cells and purified with glutathione beads (protein) MATAPSYPAGLPGSPGPGSPPPPGGLELQSPPPLLPQIPAPGSGVSFHIQIGLTREFVLLPAASELAHVKQLACSIVDQKFPECGFYGLYDKILLFKHDPTSANLLQLVRSSGDIQEGDLVEVVLSASATFEDFQIRPHALTVHSYRAPAFCDHCGEMLFGLVRQGLKCDGCGLNYHKRCAFSIPNNCSGARKRRLSSTSLASGHSVRLGTSESLPCTAEELSRSTTELLPRRPPSSSSSSSASSYTGRPIELDKMLLSKVKVPHTFLIHSYTRPTVCQACKKLLKGLFRQGLQCKDCKFNCHKRCATRVPNDCLGEALINGDVPMEEATDFSEADKSALMDESEDSGVIPGSHSENALHASEEEEGEGGKAQSSLGYIPLMRVVQSVRHTTRKSSTTLREGWVVHYSNKDTLRKRHYWRLDCKCITLFQNNTTNRYYKEIPLSEILTVESAQNFSLVPPGTNPHCFEIVTANATYFVGEMPGGTPGGPSGQGAEAARGWETAIRQALMPVILQDAPSAPGHAPHRQASLSISVSNSQIQENVDIATVYQIFPDEVLGSGQFGVVYGGKHRKTGRDVAVKVIDKLRFPTKQESQLRNEVAILQSLRHPGIVNLECMFETPEKVFVVMEKLHGDMLEMILSSEKGRLPERLTKFLITQILVALRHLHFKNIVHCDLKPENVLLASADPFPQVKLCDFGFARIIGEKSFRRSVVGTPAYLAPEVLLNQGYNRSLDMWSVGVIMYVSLSGTFPFNEDEDINDQIQNAAFMYPASPWSHISAGAIDLINNLLQVKMRKRYSVDKSLSHPWLQEYQTWLDLRELEGKMGERYITHESDDARWEQFAAEHPLPGSGLPTDRDLGGACPPQDHDMQGLAERISVL | GST-tagged PKD2 expressed in 293T cells and purified by pull down with glutathione beads was capable of directly phosphorylating bacterially produced GST-IFNAR1 on Ser535 in vitro | 
2 | Myc-tagged human CK1ε immunopurified from 293T cells (protein) MELRVGNKYRLGRKIGSGSFGDIYLGANIASGEEVAIKLECVKTKHPQLHIESKFYKMMQGGVGIPSIKWCGAEGDYNVMVMELLGPSLEDLFNFCSRKFSLKTVLLLADQMISRIEYIHSKNFIHRDVKPDNFLMGLGKKGNLVYIIDFGLAKKYRDARTHQHIPYRENKNLTGTARYASINTHLGIEQSRRDDLESLGYVLMYFNLGSLPWQGLKAATKRQKYERISEKKMSTPIEVLCKGYPSEFSTYLNFCRSLRFDDKPDYSYLRQLFRNLFHRQGFSYDYVFDWNMLKFGAARNPEDVDRERREHEREERMGQLRGSATRALPPGPPTGATANRLRSAAEPVASTPASRIQPAGNTSPRAISRVDRERKVSMRLHRGAPANVSSSDLTGRQEVSRIPASQTSVPFDHLGK |  | immunopurified human CK18, CK1E, and protozoan parasite L-CK1 were active against IFNAR1S535 in the immunokinase assay in vitro
3 | GST-tagged PKD3 (human) expressed in 293T cells (protein) MSANNSPPSAQKSVLPTAIPAVLPAASPCSSPKTGLSARLSNGSFSAPSLTNSRGSVHTVSFLLQIGLTRESVTIEAQELSLSAVKDLVCSIVYQKFPECGFFGMYDKILLFRHDMNSENILQLITSADEIHEGDLVEVVLSALATVEDFQIRPHTLYVHSYKAPTFCDYCGEMLWGLVRQGLKCEGCGLNYHKRCAFKIPNNCSGVRKRRLSNVSLPGPGLSVPRPLQPEYVALPSEESHVHQEPSKRIPSWSGRPIWMEKMVMCRVKVPHTFAVHSYTRPTICQYCKRLLKGLFRQGMQCKDCKFNCHKRCASKVPRDCLGEVTFNGEPSSLGTDTDIPMDIDNNDINSDSSRGLDDTEEPSPPEDKMFFLDPSDLDVERDEEAVKTISPSTSNNIPLMRVVQSIKHTKRKSSTMVKEGWMVHYTSRDNLRKRHYWRLDSKCLTLFQNESGSKYYKEIPLSEILRISSPRDFTNISQGSNPHCFEIITDTMVYFVGENNGDSSHNPVLAATGVGLDVAQSWEKAIRQALMPVTPQASVCTSPGQGKDHKDLSTSISVSNCQIQENVDISTVYQIFADEVLGSGQFGIVYGGKHRKTGRDVAIKVIDKMRFPTKQESQLRNEVAILQNLHHPGIVNLECMFETPERVFVVMEKLHGDMLEMILSSEKSRLPERITKFMVTQILVALRNLHFKNIVHCDLKPENVLLASAEPFPQVKLCDFGFARIIGEKSFRRSVVGTPAYLAPEVLRSKGYNRSLDMWSVGVIIYVSLSGTFPFNEDEDINDQIQNAAFMYPPNPWREISGEAIDLINNLLQVKMRKRYSVDKSLSHPWLQDYQTWLDLREFETRIGERYITHESDDARWEIHAYTHNLVYPKHFIMAPNPDDMEEDP | this outcome was not seen when either PKD1 or PKD3 were used as a source of kinase | 
4 | Myc-tagged human CK1α immunopurified from 293T cells (protein) MASSSGSKAEFIVGGKYKLVRKIGSGSFGDIYLAINITNGEEVAVKLESQKARHPQLLYESKLYKILQGGVGIPHIRWYGQEKDYNVLVMDLLGPSLEDLFNFCSRRFTMKTVLMLADQMISRIEYVHTKNFIHRDIKPDNFLMGIGRHCNKLFLIDFGLAKKYRDNRTRQHIPYREDKNLTGTARYASINAHLGIEQSRRDDMESLGYVLMYFNRTSLPWQGLKAATKKQKYEKISEKKMSTPVEVLCKGFPAEFAMYLNYCRGLRFEEAPDYMYLRQLFRILFRTLNHQYDYTFDWTMLKQKAAQQAASSSGQGQQAQTPTGKQTDKTKSNMKGF |  | both immunopurified (FIG. 55C) and bacterially produced CK1α (FIG. 55E, lane 6) also phosphorylated GST4FNAR1 on Ser535 in vitro
5 | GST-tagged PKD1 (human) expressed in 293T cells (protein) MSAPPVLRPPSPLLPVAAAAAAAAAALVPGSGPGPAPFLAPVAAPVGGISFHLQIGLSREPVLLLQDSSGDYSLAHVREMACSIVDQKFPECGFYGMYDKILLFRHDPTSENILQLVKAASDIQEGDLIEVVLSASATFEDFQIRPHALFVHSYRAPAFCDHCGEMLWGLVRQGLKCEGCGLNYHKRCAFKIPNNCSGVRRRRLSNVSLTGVSTIRTSSAELSTSAPDEPLLQKSPSESFIGREKRSNSQSYIGRPIHLDKILMSKVKVPHTFVIHSYTRPTVCQYCKKLLKGLFRQGLQCKDCRFNCHKRCAPKVPNNCLGEVTINGDLLSPGAESDVVMEEGSDDNDSERNSGLMDDMEEAMVQDAEMAMAECQNDSGEMQDPDPDHEDANRTISPSTSNNIPLMRVVQSVKHTKRKSSTVMKEGWMVHYTSKDTLRKRHYWRLDSKCITLFQNDTGSRYYKEIPLSEILSLEPVKTSALIPNGANPHCFEITTANVVYYVGENVVNPSSPSPNNSVLTSGVGADVARMWEIAIQHALMPVIPKGSSVGTGTNLHRDISVSISVSNCQIQENVDISTVYQIFPDEVLGSGQFGIVYGGKHRKTGRDVAIKIIDKLRFPTKQESQLRNEVAILQNLHHPGVVNLECMFETPERVFVVMEKLHGDMLEMILSSEKGRLPEHITKFLITQILVALRHLHFKNIVHCDLKPENVLLASADPFPQVKLCDFGFARIIGEKSFRRSVVGTPAYLAPEVLRNKGYNRSLDMWSVGVIIYVSLSGTFPFNEDEDIHDQIQNAAFMYPPNPWKEISHEAIDLINNLLQVKMRKRYSVDKTLSHPWLQDYQTWLDLRELECKIGERYITHESDDLRWEKYAGEQGLQYPTHLINPSASHSDTPETEETEMKALGERVSIL | this outcome was not seen when either PKD1 or PKD3 were used as a source of kinase | 
